B1: RING1 and YY1-binding protein (Homo sapiens), Q8N488 (parent)
chain: MTMGDKKSPTRPKRQAKPAADEGFWDCSVCTFRNSAEAFKCSICDVRKGTSTRKPRINSQLVAQQVAQQYATPPPPKKEKKEKVEKQDKEKPEKDKEISPSVTKKNTNKKTKPKSDILKDPPSEANSIQSANATTKTSETNHTSRPRLKNVDRSTAQQLAVTVGNVTVIITDFKEKTRSSSTSSSTVTSSAGSEQQNQSSSGSESTDKGSSRSSTPKGDMSAVNDESF

Variants of: B1
Settings: with ubc_human UBC

Variant | effect of a mutation on the interaction
MTMGDKKSPTRPKRQAKPAADEGFWDCSVCAARNSAEAFKCSICDVRKGTSTRKPRINSQLVAQQVAQQYATPPPPKKEKKEKVEKQDKEKPEKDKEISPSVTKKNTNKKTKPKSDILKDPPSEANSIQSANATTKTSETNHTSRPRLKNVDRSTAQQLAVTVGNVTVIITDFKEKTRSSSTSSSTVTSSAGSEQQNQSSSGSESTDKGSSRSSTPKGDMSAVNDESF [T31A;F32A] | disrupting interaction

Variants of: B1
Settings: with ubc_human UBC
Remark: another data set of the same source

Variant | effect of a mutation on the interaction
MTMGDKKSPTRPKRQAKPAADEGFWDCSVCAARNSAEAFKCSICDVRKGTSTRKPRINSQLVAQQVAQQYATPPPPKKEKKEKVEKQDKEKPEKDKEISPSVTKKNTNKKTKPKSDILKDPPSEANSIQSANATTKTSETNHTSRPRLKNVDRSTAQQLAVTVGNVTVIITDFKEKTRSSSTSSSTVTSSAGSEQQNQSSSGSESTDKGSSRSSTPKGDMSAVNDESF [T31A;F32A] | disrupting interaction

Variants of: B1
Settings: with RING1, Q06587-2
Sequence of RING1, Q06587-2 (Q06587 30-406): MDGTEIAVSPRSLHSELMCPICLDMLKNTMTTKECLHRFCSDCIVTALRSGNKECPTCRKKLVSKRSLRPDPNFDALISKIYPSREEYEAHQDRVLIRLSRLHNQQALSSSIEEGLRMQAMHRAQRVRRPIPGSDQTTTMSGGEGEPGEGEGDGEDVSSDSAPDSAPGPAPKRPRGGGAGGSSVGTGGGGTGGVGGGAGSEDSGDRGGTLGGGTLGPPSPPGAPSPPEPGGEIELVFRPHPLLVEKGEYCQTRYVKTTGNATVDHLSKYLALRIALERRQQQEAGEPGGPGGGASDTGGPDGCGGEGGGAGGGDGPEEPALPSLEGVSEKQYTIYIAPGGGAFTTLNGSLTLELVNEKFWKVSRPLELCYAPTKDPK

Variant | effect of a mutation on the interaction
MTMGDKKSPTRPKRQAKPAADEGFWDCSVCAARNSAEAFKCSICDVRKGTSTRKPRINSQLVAQQVAQQYATPPPPKKEKKEKVEKQDKEKPEKDKEISPSVTKKNTNKKTKPKSDILKDPPSEANSIQSANATTKTSETNHTSRPRLKNVDRSTAQQLAVTVGNVTVIITDFKEKTRSSSTSSSTVTSSAGSEQQNQSSSGSESTDKGSSRSSTPKGDMSAVNDESF [T31A;F32A] | disrupting interaction
